Assay: soluble on expression in E. coli; label from the status in PepcDB or PDB records
With “GPGYQDPKGRLYGTIGIQKRFYVSIDKIPEHVINAFVATEDRNFWHHFGIDPVAIVRAAIVNYRAGRIVQGGSTITQQLAKNLFLTRERTLERKIKEALLAIKIERTFDKKKIMELYLNQIYLGSGAYGVEAAAQVYFGKHVWELSLDEAALLAALPKAPAKYNPFYHPERALQRRNLVLKRMLEEGYITPEQYEEAVNK” the “soluble on expression in E. coli” value was “soluble”. In the case of “GPHMADLFGDDIEEIPDTDFDFEGNLALFDKAAVFEEIDTYERR”, the “soluble on expression in E. coli” value is reported as “soluble”. For “GPISEFPVDFHYGVRVDVTLLSKIRRVNEHIKSATKTGVVQVHGSACTPTLSVLSSVGTAGVLGMRIKNALTPLVGHTEGSGDVSFSFRNTSVGSGFTHTRELFGANVLDAGIAFYRKGEACDTGAQPQFVRTTISYGDNLTSTVHKSVVDQKGILPFHDRMEAGGRTTRLMLCGKTGAFLLKWLRQQKTKEDQTVTVSVSETLSIVTFSLGGVSKIIDFKPETKPVSGWDGLKGKKSVDVGVVHTDALSRVSLESLIAALRMCKVPGWFTPGLIWHSNEILEVEGVPTGCQSGDVKLSVLLLEVNRSV”, the “soluble on expression in E. coli” value was “soluble”. For “GPLGSMKLLVVDDSSTMRRIIKNTLSRLGYEDVLEAEHGVEAWEKLDANADTKVLITDWNMPEMNGLDLVKKVRSDSRFKEIPIIMITTEGGKAEVITALKAGVNNYIVKPFTPQVLKEKLEVVLGTND”, the “soluble on expression in E. coli” value was “soluble”. With “GPLGSSIMKILLIGDSGVGKSCLLVRFVEDKFNPSFITTIGIDFKIKTVDINGKKVKLQLWDTAGQERFRTITTAYYRGAMGIILVYDVTDERTFTNIKQWFKTVNEHANDEAQLLLVGNKSDMETRVVTADQGEALAKELGIPFIESSAKNDDNVNEIFFTLAKLIQEKIDSN” the “soluble on expression in E. coli” value was “soluble”. For “GPLQVSNARLLFPISMPEDEGVVRLVVNNTDESDLQVAVVSLPSFVSLDDRAFRLQAREPRELNLSLAVPRNMPPGMKDEPLVLEVTSPETGKKAVDSVMVSLPLVDNFPALTAAQTGVMELSTYLDMGQLDGETTKAAIEIRNVGAGPLRLHSVTTRNPALTAVPDRTEIKPGGSTLLRIAVDPQVMKAEGWQSIAADISIICNDPQAPLRRIKVKAEL”, the “soluble on expression in E. coli” value was “soluble”. For “GPPTRRSDFRVLVSGLPPSGSWQDLKDHMREAGDVCYADVQKDGMGMVEYLRKEDMEYALRKLDDTKFRSHEGETSYIRVYPERS”, the “soluble on expression in E. coli” value was “soluble”. In the case of “GPVDNNNNNGLKNSTEPIYAKVNKKKTGQVASPEEPIYTQVAKKVNAKIDRLNQIASGLGGVGQAAGFPLKRHDKVDDLSKVGLSASPEPIYATIDDLGGPFPLKRHDKVDDLSKVGRSRNQELA”, the “soluble on expression in E. coli” value is reported as “soluble”. For “GPYATEVELREMVDIAQEHGIVEIEERRMIQSVFDLASTTVRQVMVPRPEMIWIESGKTAGQATALCVRSGHSRIPVIGENVDDIIGIVYLKDLVQKTYYATDGGKSVLVDEVMREATFVPDSKSLDALLQEMQEDHKHIAILVDEYGGVAGLISIEDILEEIVGEIADEYDAREVAPIEKIGDRTYRVVSRL”, the “soluble on expression in E. coli” value was “not soluble”. In the case of “GPYLVIVEQPKQRGFRFRYGCEGPSHGGLPGASSEKGRKTYPTVKICNYEGPAKIEVDLVTHSDPPRAHAHSLVGKQCSELGICAVSVGPKDMTAQFNNLGVLHVTKKNMMGTMIQKLQRQRLRSRPQGLTEAEQRELEQEAKELKKVMDLSIVRLRFSAFLRDSDGSFSLPLKPVISQPIHDSKSPGASNLKISRMDKTAGSVRGGDEVYLLCDKVQKDDIEVRFYEDDENGWQAFGDFSPTDVHKQYAIVFRTPPYHKMKIERPVTVFLQLKRKRGGDVSDSKQFTYYPLV”, the “soluble on expression in E. coli” value is reported as “soluble”. For “GQANHPTAAVVTEKQQMLEQHLQDVRKRVQDLEQKMKVVENLQDDFDFNYKTLKSQGDMQDLNGNNQSVTRQKMQQLEQMLTALDQMRRSIVSELAGLLSAMEYVQKTLTDEELADWKRRQQIACIGGPPNICLDRLENWITSLAESQLQTRQQIKKLEELQQKVSYKGDPIVQHRPMLEERIVELFRNLMKSAFVVERQPCMPMHPDRPLVIKTGVQFTTKVRLLVKFPELNYQLKIKVCIDKDSGDVAALRGSRKFNILGTNTKVMNMEESNNGSLSAEFKHLTLREQRCGNGGRANCDASLIVTEELHLITFETEVYHQGLKIDLETHSLPVVVISNICQMPNAWASILWYNMLTNNPKNVNFFTKPPIGTWDQVAEVLSWQFSSTTKRGLSIEQLTTLAEKLLGPGVNYSGCQITWAKFCKENMAGKGFSFWVWLDNIIDLVKKYILALWNEGYIMGFISKERERAILSTKPPGTFLLRFSESSKEGGVTFTWVEKDISGKTQIQSVEPYTKQQLNNMSFAEIIMGYKIMDATNILVSPLVYLYPDIPKEEAFGKYCR”, the “soluble on expression in E. coli” value was “soluble”. For “GQYKIQIFEKGDFSGQMYETTEDCPSIMEQFHMREIHSCKVLEGVWIFYELPNYRGRQYLLDKKEYRKPIDWGAASPAVQSFRRIVE”, the “soluble on expression in E. coli” value was “soluble”. With “GSACELPECQEDAGNKVCSLQCNNHACGWDGGDCSLNFNDPWKNCTQSLQCWKYFSDGHCDSQCNSAGCLFDGFDCQRAEGQCNPLYDQYCKDHFSDGHCDQGCNSAECEWDGLDCAEHVPERLAAGTLVVVVLMPPEQLRNSSFHFLRELSRVLHTNVVFKRDAHGQQMIFPYYGDVRGSIVYLEIDNRQCVQASSQCFQSATDVAAFLGALASLGSLNIPYKIEAVQSETVEPANSHHHHHH” the “soluble on expression in E. coli” value was “soluble”. In the case of “GSAGDVTNDLSHVRKIIVACDAGMGSSAMGAGVLRKKIQDAGLSQISVTNSAINNLPPDVDLVITHRDLTERAMRQVPQAQHISLTNFLDSGLYTSLTERLVAAQRHTENEVKVKDSLKDSFDDS”, the “soluble on expression in E. coli” value is reported as “soluble”. With “GSEFAIDPNEPTYCLCNQVSYGEMIGCDNEQCPIEWFHFSCVSLTYKPKGKWYCPKCRGDNE” the “soluble on expression in E. coli” value was “soluble”. For “GSFTSSGCQEANYGALLRELCLTQFQVDMEAVGETLWCDWGRTIRSYRELADCTWHMAEKLGCFWPNAEVDRFFLAVHGRYFRSCPISGRAVR”, the “soluble on expression in E. coli” value was “soluble”. In the case of “GSGLSAQDISQPLQNSFIHTGHGDSDPRHCWGFPDRIDELYLGN”, the “soluble on expression in E. coli” value is reported as “soluble”. In the case of “GSHMAAAKQDVKVFSEDGTSKVVEILADMTARDLCQLLVYKSHSVDDNSWTLVEHHPHLGLERCLEDHELVVQVESTMASESKFLFRKNYAKYEFFKNPMNFFPEQMVTWSQQSNGSQTQLLQNFLNSSSSPEIQGFLHVKELGKKSWKKLYVCLRRSGLYCSTKGTSAAPRHLQLLADLEDSNIFSLIAGRKQYNAPTDHGLCIKPNKVRNETKELRLLCAEDEQTRTSWMTAFRLLKYGMLLYQNYRIPQQRKA”, the “soluble on expression in E. coli” value is reported as “soluble”. In the case of “GSHMAASATAAAVAAEVISVHSLEQWTMQIEEANTAKKLVVIDFTASWCGPSRIMAPVFADLAKKFPNAVFLKVDVDELKPIAEQFSVEAMPTFLFMKEGDVKDRVVGAIKEELTAKVGLHAAAQ”, the “soluble on expression in E. coli” value is reported as “soluble”. For “GSHMASKPIEDYGKGKGRIEPMYIPDNTFYNADDFLVPPHCKPYIDKILLPGGLVKDRVEKLAYDIHRTYFGEELHIICILKGSRGFFNLLIDYLATIQKYSGRESSVPPFFEHYVRLKSYQNDNSTGQLTVLSDDLSIFRDKHVLIVEDIVDTGFTLTEFGERLKAVGPKSMRIATLVEKRTDRSNSLKGDFVGFSIEDVWIVGCCYDFNEMFRDFDHVAVLSDAARKKFEK”, the “soluble on expression in E. coli” value was “soluble”. With “GSHMDKTFCVVVQNRIKEGYRRAGFSFHLGDNSLAAVSESQLAQLKADPRLVVQITETGSQEGGEGLSKEPAGSDEQKQLRADPPSTDLNTFTVEQLKAQLTERGITFKQSATKAELIALFAPADGEKSEA” the “soluble on expression in E. coli” value was “soluble”. For “GSHMGGWSIALHGGAGDIPFSLPPERRKPREEGLRHCLQIGVEALKAQKPPLDVVELVVRELENIEHFNAGIGSVLTNSGTVEMEASIMDGNTMKCGAVSGLSTVLNPISLARLVMDKTPHIYLAFQGAQDFAKQQGVETVDSSHLITAENVERLKLAIEANRVQVDYSQYNYPEPVKDDAEKELPLTNGDSQIG”, the “soluble on expression in E. coli” value was “soluble”.
